Reference: patent US7429474B2, “2-O sulfatase compositions and methods of analyzing therewith” (Massachusetts Institute of Technology, priority 2003, dated 2008)
“Also recorded” adds a separate entry of the source.

Experiments:
2-O sulfatase [1] = assay: effect of ionic strength, metal ions, EDTA, buffers and cysteine-reactive agents on 2-O sulfatase activity; type: biochemical, F. heparinum; conditions: for effect of additive on enzyme activity: EDTA up to 1 mM, CaCl2, MgCl2, MnCl2 up to 10 mM, DTNB, DTT, 50 mM phosphate buffer pH 6.5
Experimental: For pilot experiments measuring the relative effect of ionic strength on 2-O sulfatase activity, the NaCl concentration was varied from 0.05 to 1 M in 50 mM MES buffer (pH 6.5) that included 500 μM of the disulfated disaccharide ΔU2SHNS,6S and 50 nM enzyme. The effect of pH on sulfatase activity was assessed as a function of catalytic efficiency by measuring kinetic parameters in the following two overlapping pH buffer systems ranging from 5.0 to 8.0: 50 mM MES at pH 5.0, 5.5, 6.5, and 7.0; 50 mM MOPS at pH 6.5, 7.0, 7.5 and 8.0. Assays included 25 nM enzyme, 50 mM NaCl and varying concentrations of the disulfated disaccharide substrate ΔU2SHNS. Km and kcat values were extrapolated from Vo vs. [S] curves fit to the Michaelis-Menten equation by a non-linear least squares regression and the relative kcat/Km ratios plotted as a function of buffer pH. […] Relative activities were measured at a single saturating substrate concentration (4 mM) using ΔU2SHNS.
We also examined 2-O sulfatase activity relative to ionic composition.

2-O sulfatase [2] = assay: desulfation of 2-O sulfated chondroitin disaccharides under extended and exhaustive conditions; type: biochemical, F. heparinum; conditions: 4× higher enzyme concentration, 20 minute period
Experimental: Substrate specificity and kinetics experiments using different disaccharide substrates—For substrate specificity experiments, the following heparin disaccharide substrates were used: ΔU2SHNAc, ΔU2SHNAc,6S, ΔU2SHNS, and ΔU2SHNS,6S. In addition, the chondroitin disaccharides ΔU2SGalNAc,4S and ΔU2SGalNAc,6S were also studied. Disaccharide concentrations for each respective substrate were varied from 0.1 mM to 4 mM. Initial rates (Vo) were extrapolated from linear activities representing <20% substrate turnover and fit to pseudo first-order kinetics. Standard reactions included 50 mM imidazole, pH 6.5, 50 mM NaCl, 500 μM disaccharide, and 25 nM of enzyme (2-O ΔN^1-24) in a 20 μL reaction volume. […] Desulfation at the 2-OH position of the disaccharide was measured by capillary electrophoresis. […] Activity was measured as moles of desulfated product formed and was calculated from the measured area of the product peak based on molar conversion factors empirically determined from standard curves. […] Each unsaturated disaccharide peak was detected by UV absorption at 232 nm. All the substrate saturation kinetics were measured under Michaelis-Menten conditions.
To determine whether either or both of these 2-O sulfated chondroitin disaccharides could be quantitatively desulfated under exhaustive conditions, we carried out an 18 hour incubation at 30° C. that included 5 mM of substrate and 5 μM enzyme.

[3] = biological target: T1, 2-O sulfatase (2-O ΔN^1-24) (Pedobacter heparinus, UniProt C6Y1N2); assay: exolytic desulfation of oligosaccharides by 2-O sulfatase (CE compositional analysis and MALDI-MS); type: biochemical, F. heparinum
Experimental: Heparin compositional analyses by capillary electrophoresis and MALDI-MS—Approximately 10 μg of the AT-10 oligosaccharide were incubated with 100 picomoles of 2-O ΔN^1-24 in a 40 μL reaction volume at 30° C. 15 μL aliquots were removed at 4 hours and 17 hours and heat inactivated at 95° C. The oligosaccharide reaction products (along with 15 μL of a minus sulfatase control) were subjected to an exhaustive heparinase I and III digestion prior to CE-based compositional analysis. Desulfation of the decasaccharide was assayed in parallel by MALDI-MS using established methods (Rhomberg, A. J., Ernst, S., Sasisekharan, R., and Biemann, K. (1998) Proc Natl Acad Sci USA 95(8), 4176-81.).
Exolytic Action of the 2-O sulfatase—We addressed this important question using as a substrate the purified heparin-derived AT-10 decasaccharide ΔU2SHNS,6SI2SHNS,6SI2SHNS,6SIHNAc,6SGHNS,3S,6S. […] The substrate was first exhaustively treated with the 2-O sulfatase. The 2-O desulfated decasaccharide was then subjected to an exhaustive heparinase treatment.

[4] = biological target: T1, 2-O sulfatase (2-O ΔN^1-24); assay: 2-O sulfatase assay and disaccharide substrate kinetics by capillary electrophoresis; type: biochemical, F. heparinum
Experimental: (§1) 2-O sulfatase assay and determination of biochemical reaction conditions—2-O sulfatase activity was measured using the unsaturated heparin trisulfated disaccharide ΔU2SHNS,6S or the disulfated disaccharide ΔU2SHNS as well as the disulfated disaccharide ΔUHNS,6S lacking a sulfate at the 2-OH position. Standard reactions included 50 mM imidazole, pH 6.5, 50 mM NaCl, 500 μM disaccharide, and 25 nM of enzyme (2-O ΔN^1-24) in a 20 μL reaction volume. The reaction was carried out for 30 seconds at 30° C. Prior to its addition, the enzyme was serially diluted to 250 nM in ice cold 1X imidazole buffer. The assay was initiated by the addition of 2 μL of this 10 X enzyme stock to 18 μL of reaction mixture. The enzyme was inactivated by heating at 95° C. 11 for five minutes in pre-heated 0.5 mL eppendorf tubes. Desulfation at the 2-OH position of the disaccharide was measured by capillary electrophoresis. Resolution of substrate and product were achieved under standard conditions described for HSGAG compositional analyses (Rhomberg, A. J., Ernst, S., Sasisekharan, R., and Biemann, K. (1998) Proc Natl Acad Sci USA 95(8), 4176-81). […] For the detection of mono- and di-sulfated disaccharide products, total electrophoresis time was 20 minutes. Each unsaturated disaccharide peak was detected by UV absorption at 232 nm.
(§2) Substrate specificity and kinetics experiments using different disaccharide substrates—For substrate specificity experiments, the following heparin disaccharide substrates were used: ΔU2SHNAc, ΔU2SHNAc,6S, ΔU2SHNS, and ΔU2SHNS,6S. In addition, the chondroitin disaccharides ΔU2SGalNAc,4S and ΔU2SGalNAc,6S were also studied. Disaccharide concentrations for each respective substrate were varied from 0.1 mM to 4 mM. Initial rates (Vo) were extrapolated from linear activities representing <20% substrate turnover and fit to pseudo first-order kinetics. Standard reactions included 50 mM imidazole, pH 6.5, 50 mM NaCl, 500 μM disaccharide, and 25 nM of enzyme (2-O ΔN^1-24) in a 20 μL reaction volume. The reaction was carried out for 30 seconds at 30° C.

[5] = biochemical reaction conditions (pH, ionic strength, temperature) for recombinant 2-O sulfatase; conditions: for activity at outlying pH values of 5 and 8: pH 5.0 and 8.0
Experimental: FIG. 6 provides the in vitro biochemical reaction conditions for the recombinant 2-O sulfatase. Panel (A) illustrates the effect of pH. Sulfatase catalytic efficiency (kcat/Km) was measured as a function of varying pH from 5 to 8 using two overlapping buffers: 50 mM MES (solid circles) and 50 mM MOPS (open circles). Inset: Relative effect of three different assay buffers (each at pH 6.5) on optimal enzyme activity. 1.50 mM MES; 2.50 mM imidazole; 3.50 mM sodium phosphate. Panel (B) illustrates the effect of ionic strength. Shown here is % activity normalized to 50 mM NaCl. Panel (C) illustrates the effect of reaction temperature. Data is normalized to 30° C. activity (100%). The unsaturated disaccharide ΔU2SHNS was used in all three experiments.
For pilot experiments measuring the relative effect of ionic strength on 2-O sulfatase activity, the NaCl concentration was varied from 0.05 to 1 M in 50 mM MES buffer (pH 6.5) that included 500 μM of the disulfated disaccharide ΔU2SHNS,6S and 50 nM enzyme. The effect of pH on sulfatase activity was assessed as a function of catalytic efficiency by measuring kinetic parameters in the following two overlapping pH buffer systems ranging from 5.0 to 8.0: 50 mM MES at pH 5.0, 5.5, 6.5, and 7.0; 50 mM MOPS at pH 6.5, 7.0, 7.5 and 8.0. Assays included 25 nM enzyme, 50 mM NaCl and varying concentrations of the disulfated disaccharide substrate ΔU2SHNS. Km and kcat values were extrapolated from Vo vs. [S] curves fit to the Michaelis-Menten equation by a non-linear least squares regression and the relative kcat/Km ratios plotted as a function of buffer pH. Based on this profile, relative enzyme activity was also measured in four different buffers (MES, imidazole, ADA, and sodium phosphate) each present as a 50 mM concentration at pH 6.5. Relative activities were measured at a single saturating substrate concentration (4 mM) using ΔU2SHNS.
These parameters included pH, temperature, ionic strength, and possible divalent metal ion dependency.
37° C. was the default temperature at which all of the preliminary biochemical experiments were conducted. We measured both relative enzyme activity and stability as a function of varying reaction temperature (FIG. 6, Paenl (C)). The 2-O sulfatase was active over a fairly broad temperature range (25° C. to 37° C.), with optimal activity occurring at 30° C. Enzyme activity was compromised at 42° C. Enzyme stability at this temperature was likewise affected as assessed in pre-incubation experiments conducted at varying temperatures (30° C.→42° C.) prior to measuring 2-O sulfatase activity at 30° C.

[6] = −85° C., 10% glycerol
[7] = substrate: CC(=O)N[C@H]1C(O)O[C@H](CO)[C@@H](O[C@@H]2OC(C(=O)O)=C[C@H](O)[C@H]2OS(=O)(=O)O)[C@@H]1O; assay: 2-O sulfatase assay and disaccharide substrate kinetics by capillary electrophoresis; type: biochemical, F. heparinum; conditions: other: 25 nM 2-O ΔN^1-24, 50 mM imidazole pH 6.5, 50 mM NaCl, 30° C., chondroitin disaccharide approximated from double reciprocal plots
Experimental: as §1, §2

[8] = substrate: CC(=O)N[C@H]1C(O)O[C@H](COS(=O)(=O)O)[C@@H](O[C@@H]2OC(C(=O)O)=C[C@H](O)[C@H]2OS(=O)(=O)O)[C@@H]1O; assay: as above; type: biochemical, F. heparinum; conditions: other: 25 nM 2-O ΔN^1-24, 50 mM imidazole pH 6.5, 50 mM NaCl, 30° C., chondroitin disaccharide approximated from double reciprocal plots
Experimental: as §1, §2

[9] = substrate: O=C(O)C1=C[C@H](O)[C@@H](OS(=O)(=O)O)[C@H](O[C@H]2[C@H](O)[C@@H](NS(=O)(=O)O)C(O)O[C@@H]2CO)O1; assay: as above; type: biochemical, F. heparinum; conditions: other: 25 nM 2-O ΔN^1-24, 50 mM imidazole pH 6.5, 50 mM NaCl, 30° C., chondroitin disaccharide approximated from double reciprocal plots
Experimental: as §1, §2

[10] = substrate: O=C(O)C1=C[C@H](O)[C@@H](OS(=O)(=O)O)[C@H](O[C@H]2[C@H](O)[C@@H](NS(=O)(=O)O)C(O)O[C@@H]2COS(=O)(=O)O)O1; assay: as above; type: biochemical, F. heparinum; conditions: other: 25 nM 2-O ΔN^1-24, 50 mM imidazole pH 6.5, 50 mM NaCl, 30° C., chondroitin disaccharide approximated from double reciprocal plots
Experimental: as §1, §2

O[C@@H](CS)[C@@H](O)CS [DTT]
effect of additive on enzyme activity (2-O sulfatase [1]): not inhibited

CC(=O)N[C@H]1C(O)O[C@H](CO)[C@H](OS(=O)(=O)O)[C@@H]1O[C@@H]1OC(C(=O)O)=C[C@H](O)[C@H]1OS(=O)(=O)O (some centres unmarked) [ΔU2SGalNAc,4S]
substrate desulfated (2-O sulfatase [2]): less than 10%

CC(=O)NC1C(OC2C(C(=O)O)OC(OC3C(COS(=O)(=O)O)OC(O)C(NS(=O)(=O)O)C3OS(=O)(=O)O)C(O)C2O)OC(COS(=O)(=O)O)C(OC2OC(C(=O)O)C(OC3OC(COS(=O)(=O)O)C(OC4OC(C(=O)O)C(OC5OC(COS(=O)(=O)O)C(OC6OC(C(=O)O)C(OC7OC(COS(=O)(=O)O)C(OC8OC(C(=O)O)=CC(O)C8OS(=O)(=O)O)C(O)C7NS(=O)(=O)O)C(O)C6OS(=O)(=O)O)C(O)C5NS(=O)(=O)O)C(O)C4OS(=O)(=O)O)C(O)C3NS(=O)(=O)O)C(O)C2O)C1O [AT-10, ΔU2SHNS,6SI2SHNS,6SI2SHNS,6SIHNAc,6SGHNS,3S,6S]
disappearance of disaccharide ΔU2SHNS,6S in compositional analysis ([3]; 2-O sulfatase then exhaustive heparinase treatment, CE): by only one-third | sulfates lost after exhaustive 2-O sulfatase treatment (mass spectrometry) ([3]; MALDI-MS): Loss of a single sulfate

O=C(O)CN(CCN(CC(=O)O)CC(=O)O)CC(=O)O [EDTA]
effect of additive on enzyme activity (2-O sulfatase [1]): largely unaffected | inhibition of activity (2-O sulfatase [1]; preincubation of enzyme with 5 mM EDTA, trisulfated disaccharide substrate): approximately 10%

O=C(O)C1=C[C@H](O)[C@@H](OS(=O)(=O)O)[C@H](O[C@H]2[C@H](O)[C@@H](NS(=O)(=O)O)C(O)O[C@@H]2COS(=O)(=O)O)O1 (some centres unmarked) [ΔU2SHNS,6S]
position specificity of desulfation by the recombinant sulfatase ([4]; ΔU2SHNS,6S versus ΔUHNS,6S, CE): only hydrolyzed a single sulfate, namely, the one found at the 2-OH position

O=C(O)c1cc(SSc2ccc([N+](=O)[O-])c(C(=O)O)c2)ccc1[N+](=O)[O-] [DTNB]
effect of additive on enzyme activity (2-O sulfatase [1]): not inhibited

[Cl][Mn][Cl] [MnCl2]
effect of additive on enzyme activity (2-O sulfatase [1]): no substantive effect

[Ca+2].[Cl-].[Cl-] [CaCl2]
effect of additive on enzyme activity (2-O sulfatase [1]): no substantive effect

CC(=O)N[C@H]1C(O)O[C@H](COS(=O)(=O)O)[C@H](O)[C@@H]1O[C@@H]1OC(C(=O)O)=C[C@H](O)[C@H]1OS(=O)(=O)O (some centres unmarked) [ΔU2SGalNac.6S]
Km ([4]; 25 nM 2-O ΔN^1-24, 50 mM imidazole pH 6.5, 50 mM NaCl, 30° C., chondroitin disaccharide approximated from double reciprocal plots): > 10000 µM | kcat ([4]; 25 nM 2-O ΔN^1-24, 50 mM imidazole pH 6.5, 50 mM NaCl, 30° C., substrate 0.1-4 mM, chondroitin disaccharide approximated from double reciprocal plots): <100 s⁻¹ | hydrolysis under the standard kinetic conditions ([4]; same kinetic conditions as heparin disaccharides): albeit neglibly, hydrolyzed; also recorded: only neglibly hydrolyzed | substrate desulfated (2-O sulfatase [2]): approximately 40%

[Cl-].[Cl-].[Mg+2] [MgCl2]
effect of additive on enzyme activity (2-O sulfatase [1]): no substantive effect

B1: 2-O sulfatase: recombinant F. heparinum 2-O sulfatase expressed in E. coli; experiments used the truncated enzyme with the histidine tag cleaved (protein, listed as Flavobacterium heparinum)
chain: MKMYKSKGWLIAMLILAGFGDAGAQTSKVAASRPNIIIIMTDQQTADAMSNAGNKDLHTPAMDVLAANGTRFTRAYCAQPLCTPSRSAIFSGKMPHETGFTGNTPEKDGQWPDSVLMMGKIFKAGGYKTGYVGKWHLPVPVTKVAQHGFETIENTGMGDYTDAVTPSQCANFNKKNKDNPFLLVASFLNPHDICEWARGDNLKMDVLDAAPDTAFCPKLPANWPIPAFEPAIVREQQKVNPRTYPSVGWNESQWRKYRWAYNRLVEKVDNYMAMVLGSLKKYGIEDNTIIIFTSDHGDGYAAHEWNQKQILYEEAARIPFIISKIGQWKARTDDQLVCNGIDIIPTICGFAGIAKPVGLKGLDLSKRIANPSVKLRDTLVIETDFADNELLLGIKGRAVITKDFKYIVYDKGEIREQLFDLEKDAGEMDNLAVKPAYKKKLNEMRAYLKLWCKQHQDSFYALKK
pH activity range ([5]; 50 mM MES / MOPS, pH 5 to 8): 6.0-7.0 | pH optimum of activity (catalytic efficiency) ([5]; 50 mM MES / MOPS, pH 5 to 8): 6.5 | enzyme activity at 42° C. ([5]; 42° C.): compromised | NaCl concentration of optimal activity ([5]; NaCl titration): approximately 50 mM | activity at outlying pH values of 5 and 8 [5]: essentially no activity | activity at outlying pH values of 5 and 8 ([5]; listed as flavobacterial sulfatase): essentially inactive | temperature of optimal activity ([5]; varying reaction temperature): 30 °C | activity after long-term storage, freezing and thawing [6]: without any subsequent loss of activity

B2: 2-O sulfatase (2-O ΔN^1-24) (Pedobacter heparinus DSM 2366) (protein)
chain: QTSKVAASRPNIIIIMTDQQTADAMSNAGNKDLHTPAMDVLAANGTRFTRAYCAQPLCTPSRSAIFSGKMPHETGFTGNTPEKDGQWPDSVLMMGKIFKAGGYKTGYVGKWHLPVPVTKVAQHGFETIENTGMGDYTDAVTPSQCANFIKKNKDNPFLLVASFLNPHDICEWARGDNLKMDVLDAAPDTAFCPKLPANWPIPAFEPAIVREQQKVNPRTYPSVGWNESQWRKYRWAYNRLVEKVDNYMAMVLGSLKKYGIEDNTIIIFTSDHGDGYAAHEWNQKQILYEEAARIPFIISKIGQWKARTDDQLVCNGIDIIPTICGFAGIAKPVGLKGLDLSKRIANPSVKLRDTLVIETDFADNELLLGIKGRAVITKDFKYIVYDKGEIREQLFDLEKDAGEMDNLAVKPAYKKKLNEMRAYLKLWCKQHQDSFYALKK
Km [7]: 4660 µM | kcat [7]: 673 s⁻¹ | kcat/Km [7]: 144000 M⁻¹ s⁻¹ | Km [8]: 515 µM | kcat [8]: 1670 s⁻¹ | kcat/Km [8]: 3.25e+06 M⁻¹ s⁻¹ | Km [9]: 1060 µM | kcat [9]: 911 s⁻¹ | kcat/Km [9]: 859000 M⁻¹ s⁻¹ | Km [10]: 87 µM | kcat [10]: 814 s⁻¹ | kcat/Km [10]: 9.36e+06 M⁻¹ s⁻¹
